B1: Hammerhead Ribozyme (parent)
chain: ACCGGAUGUGCUUUCCGGUCUGAUGAGUCCGUGAGGACGAAACAG

These results are taken from the RNAGym collection of RNA variant scans (doi:10.7554/elife.80360).

The series covers variants of B1. The series can be described thus: self-cleavage, relative activity (ratio to wild type); higher = more cleavage; co-transcriptional.
In the case of U21G C29A, the self-cleavage was 0.3.
With U21G C29U, the self-cleavage turned out to be 0.471.
As for U21G C29G, the self-cleavage was determined as 0.285.
For the variant G22C G39U, the self-cleavage stood at 0.286.
For G22C G39A, the self-cleavage amounted to 0.364.
Then G22C G39C, with 0.375; and U21G C30U, with 0.837; and U21G C30G, with 0.373.
Then U21G C30A, with 0.419; and U21C U32G, with 0.947.
With U21C U32C, the self-cleavage was determined as 0.96.
Then U21C U32A, with 0.71.
Take G22A G45A: the self-cleavage is 0.369.
Then G22A G45U, with 0.383; and G22A G45C, with 0.436.
Then G22C C38G, with 0.386; and G22C C38U, with 0.315.
As to G22C C38A, the self-cleavage was 0.329.
Then U21G G33C, with 0.867; and U21G G33U, with 0.798.
Then U21G G33A, with 0.704; and G22C G27U, with 0.352; and G22C G27C, with 0.311.
Then G22C G27A, with 0.359.
Regarding G22U A44C, the self-cleavage came to 0.432.
Then G22U A44U, with 0.335; and G22U A44G, with 0.711; and G22A U24C, with 0.311.
Then G22A U24A, with 0.378.
Then G22A U24G, with 0.363; and U21G U24G, with 0.536.
With U21G U24A, the self-cleavage amounted to 0.814.
Then U21G U24C, with 0.391; and G22U G25U, with 0.303.
Then G22U G25C, with 0.264; and G22U G25A, with 0.269; and U21G G31U, with 0.743.
Then U21G G31C, with 0.577.
For U21G G31A, the self-cleavage is 0.797.
Then U21G A34C, with 0.278; and U21G A34U, with 0.348; and U21G A34G, with 0.602.
For the variant G22U A26U, the self-cleavage is 0.315.
Then G22U A26C, with 0.345.
Then G22U A26G, with 0.346; and A23C A42C, with 0.31; and A23C A42G, with 0.392.
Then A23C A42U, with 0.331.
Turning to G22A G25C, the self-cleavage stood at 0.329.
For the variant G22A G25U, the self-cleavage was determined as 0.376.
As to G22A G25A, the self-cleavage amounted to 0.377.
Then G22U G27A, with 0.305; and G22U G27U, with 0.273.
Then G22U G27C, with 0.347; and U21G A37G, with 0.454.
Then U21G A37U, with 0.417; and U21G A37C, with 0.427; and G22C A42C, with 0.309.
Turning to G22C A42U, the self-cleavage was 0.368.
Then G22C A42G, with 0.265; and G22A G27U, with 0.28.
Then G22A G27A, with 0.342; and G22A G27C, with 0.39.
Then G22A A23G, with 0.313; and G22A A23U, with 0.343; and G22A A23C, with 0.224.
U21G G22U: the self-cleavage came out at 0.426.
Then U21G G22C, with 0.292.
Then U21G G22A, with 0.324; and A23C A34C, with 0.374; and A23C A34U, with 0.298.
Then A23C A34G, with 0.342; and G22A A42U, with 0.321; and G22A A42C, with 0.335.
On to G22A A42G, for which the self-cleavage turned out to be 0.351.
Then U21G A44G, with 0.697.
Then U21G A44C, with 0.285.
Then U21G A44U, with 0.285; and A23C C29A, with 0.267; and G22C G25C, with 0.319.
Consider G22C G25U, for which the self-cleavage worked out at 0.432.
Then G22C G25A, with 0.409; and G22C G36U, with 0.322; and G22C G36A, with 0.317.
On to G22C G36C, for which the self-cleavage stood at 0.317.
Then U21C G35C, with 0.681; and U21C G35A, with 0.741.
Then U21C G35U, with 0.727; and G22U A34G, with 0.308; and G22U A34C, with 0.267.
Then G22U A34U, with 0.327; and G22C A34U, with 0.318.
Turning to G22C A34C, the self-cleavage came to 0.283.
Consider G22C A34G, for which the self-cleavage turned out to be 0.306.
Then G22U G31U, with 0.318; and G22U G31A, with 0.397; and G22U G31C, with 0.303.
Then G22C U24G, with 0.281; and G22C U24A, with 0.365; and G22C U24C, with 0.348.
Then U21G C43G, with 0.324; and U21G C43U, with 0.317; and U21G C43A, with 0.346.
For U21G, the self-cleavage came to 0.706.
G22A G33A: the self-cleavage is 0.353.
Consider G22A G33U, for which the self-cleavage was found to be 0.3.
Take G22A G33C: the self-cleavage was 0.317.
Then U21G G35U, with 0.413; and U21G G35A, with 0.28.
Then U21G G35C, with 0.306; and G22C G45A, with 0.328; and G22C G45C, with 0.424.
G22C G45U: the self-cleavage was 0.384.
For the variant G22U A41G, the self-cleavage was 0.311.
With G22U A41U, the self-cleavage was 0.353.
In the case of G22U A41C, the self-cleavage was 0.372.
Take G22A C30A: the self-cleavage is 0.392.
Then G22A C30U, with 0.417; and G22A C30G, with 0.343; and G22C A37U, with 0.259.
In the case of G22C A37C, the self-cleavage amounted to 0.286.
For the variant G22C A37G, the self-cleavage is 0.416.
Then U21C G36U, with 0.665.
Then U21C G36A, with 0.718; and U21C G36C, with 0.366.
Then U21G G25U, with 0.373; and U21G G25C, with 0.361; and U21G G25A, with 0.349.
Take U21G U32A: the self-cleavage is 0.389.
Then U21G U32G, with 0.549; and U21G U32C, with 0.523.
Then G22U G39C, with 0.316; and G22U G39A, with 0.35.
Then G22U G39U, with 0.305.
G22A U28G: the self-cleavage was found to be 0.37.
Then G22A U28C, with 0.294; and G22A U28A, with 0.326.
For the variant G22A U32C, the self-cleavage worked out at 0.29.
G22A U32G: the self-cleavage was 0.264.
Then G22A U32A, with 0.306; and G22U C38U, with 0.335; and G22U C38A, with 0.305.
Then G22U C38G, with 0.33; and G22C U28G, with 0.293; and G22C U28A, with 0.351.
Then G22C U28C, with 0.298; and U21G A23C, with 0.36.
For U21G A23U, the self-cleavage is 0.448.
In the case of U21G A23G, the self-cleavage is 0.387.
Then A23C A44U, with 0.227; and A23C A44C, with 0.39.
Then A23C A44G, with 0.896; and G22U C30G, with 0.277; and G22U C30A, with 0.296.
Then G22U C30U, with 0.344; and U21G G39C, with 0.314.
Regarding U21G G39U, the self-cleavage turned out to be 0.37.
Then U21G G39A, with 0.354; and G22A A34C, with 0.286.
Then G22A A34U, with 0.309; and G22A A34G, with 0.365.
Then G22A A37U, with 0.288; and G22A A37C, with 0.304.
On to G22A A37G, for which the self-cleavage worked out at 0.285.
Then A23C, with 0.547; and G22C G31A, with 0.25.
Then G22C G31C, with 0.37.
